Source: the supplement of paper PMC10567573

B1: NETO1 (parent)
chain: KTSLLDQLTNTSGTVIGVTSCIVI

Variants of: B1
Assay: protein stability index of a GFP-peptide fusion (GPS, HEK-293T) (PSI 1-6); higher = more stable
Settings: c terminus: a fixed tail appended
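Note: lentivirally expressed fusions sorted by FACS into six bins by GFP to DsRed ratio, PSI derived from sequencing read proportions per bin multiplied by bin number.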

Protein stability index, by site and new letter:
T9: V 2.63, S 2.72, Y 3.55, C 3.21, D 2.58, A 2.1, W 3.88, K 3.98, P 2.6, R 2.21, G 2.29, L 3.09, M 2.4, I 2.33, F 2.37, N 3.29, H 2.95
N10: P 2.96, H 2.78, S 2.76, C 2.71, F 2.3, I 3.08, K 3.15, L 3.8, A 2.13, E 3.35, W 3.97, Y 2.62, M 3.51, T 2.41, D 2.47, G 3.19, V 3.24, R 2.53, Q 2.33
L8: M 2.83, S 3.3, R 3.04, T 3.48, A 2.76, G 2, E 2.35, I 3.38, V 3.52, H 3.66, F 2.71, P 2.5, Q 3.09, K 2.99, Y 3.41, W 3.83, C 3.29, N 2.56, D 3.02
V15: D 3.39, A 2.65, E 2.04, S 2.96, W 2.59, G 2.98, L 4.43, P 3.31, Q 2.33, T 3.07, N 2.74, C 2.06, Y 3.74, I 3.08, H 1.99, R 2.45, K 3.5, F 2.44, M 2.87
I16: M 2.62, D 2.52, L 2.98, A 2.44, F 3.68, H 2.67, E 2.85, C 3.8, K 3.1
T14: R 3.41, N 2.98, H 2.62, E 3.18, P 2.69, M 2.62, A 2.03, V 3.29, W 2.37, I 2.98, D 2.58, G 2.11, F 2.82, S 1.94, Y 2.64, K 3.88, C 2.61, L 2.47, Q 3.41
S12: V 3.35, Y 3.62, L 2.43, H 2.69, M 1.87, K 2.89, F 2.37, I 2.89, A 2.96, D 3.07, N 3.41, T 2.78, P 2.51, W 1.75, G 3.53, Q 2.56, E 2.87
T11: D 3.42, E 5.03, Q 2.81, F 2.35, R 1.74, H 3.21, K 3.11, L 1.92, S 2.15, Y 2.33, A 3.75, P 3.64, V 2.65, N 2.29, W 3.6, M 3.29, I 2.52, G 2.93, C 3.13
Q7: L 3.27, P 2.88, V 3.45, T 2.05, Y 2.47, N 3.77, S 2.36, R 1.64, W 2.18, M 2.37, K 2.87
G13: R 3.34, W 3.1, V 2.66, L 2.42, H 2.65, D 2.26, N 3.9, K 2.9, M 3.17, S 3.19, T 2.23, I 2.57, A 2.12, C 2.5, Y 3.2, F 3.7, P 2.94, E 3.52
